Experimental data taken from US10064928B2, “Peptides and combination of peptides for use in immunotherapy against CLL and other cancers” (IMMATICS BIOTECHNOLOGIES GMBH, priority 2015, dated 2018).

Molecular target: HLA-A*02:01 (Homo sapiens, UniProt P04439, D140Y/D185E/D98H/E176V/E277Q/G131W/G231S/I119V/I121R/I166T/I218V/L300P/L318F/N151K/N90K/P208A/P217A/Q86G/Q94H/R138H/R169H/T345S)
Assay: MHC binding assay (UV-ligand exchange, beta2m ELISA)
Details: binding of HLA-class I restricted peptides to HLA-A*02:01, β2m ELISA
Text: Candidate peptides for T cell based therapies according to the present invention were further tested for their MHC binding capacity (affinity). The individual peptide-MHC complexes were produced by UV-ligand exchange, where a UV-sensitive peptide is cleaved upon UV-irradiation, and exchanged with the peptide of interest as analyzed. Only peptide candidates that can effectively bind and stabilize the peptide-receptive MHC molecules prevent dissociation of the MHC complexes. To determine the yield of the exchange reaction, an ELISA was performed based on the detection of the light chain (β2m) of stabilized MHC complexes. The assay was performed as generally described in Rodenko et al. (Rodenko et al., 2006).
96 well MAXISorp plates (NUNC) were coated over night with 2 ug/ml streptavidin in PBS at room temperature, washed 4× and blocked for 1 h at 37° C. in 2% BSA containing blocking buffer. Refolded HLA-A*02:01/MLA-001 monomers served as standards, covering the range of 15-500 ng/ml. Peptide-MHC monomers of the UV-exchange reaction were diluted 100 fold in blocking buffer. Samples were incubated for 1 h at 37° C., washed four times, incubated with 2 ug/ml HRP conjugated anti-β2m for 1 h at 37° C., washed again and detected with TMB solution that is stopped with […]. Absorption was measured at 450 nm. Candidate peptides that show a high exchange yield (preferably higher than 50%, most preferred higher than 75%) are generally preferred for a generation and production of antibodies or fragments thereof, and/or T cell receptors or fragments thereof, as they show sufficient avidity to the MHC molecules and prevent dissociation of the MHC complexes.

Peptide Exchange (MHC class I binding score, peptide exchange yield)	Substance
“+++” (≥50 = +++)	215 (VMQDIVYKL; listed as Homo sapiens) [compound 215]
“+++” (≥50 = +++)	374 (VLSVITEEL; listed as Homo sapiens) [compound 374]
“+++” (≥50 = +++)	94 (ILFPLRFTL; listed as Homo sapiens) [compound 94]
“+++” (≥50 = +++)	206 (HMQDVRVLL; listed as Homo sapiens) [compound 206]
“+++” (≥50 = +++)	283 (ILQPMDIHV; listed as Homo sapiens) [compound 283]
“++” (≥20% = ++)	74 (GLLRASFLL; listed as Homo sapiens) [compound 74]
“+++” (≥50 = +++)	204 (GLLQINDKIAL; listed as Homo sapiens) [compound 204]
“+++” (≥50 = +++)	14 (ALLRLLPGL; listed as Homo sapiens) [compound 14]
“+++” (≥50 = +++)	347 (YLGPVSPSL; listed as Homo sapiens) [compound 347]
“+++” (≥50 = +++)	222 (ALWELSLKI; listed as Homo sapiens) [compound 222]
“+++” (≥50 = +++)	182 (VLLSVPGPPV; listed as Homo sapiens) [compound 182]
“+++” (≥50 = +++)	310 (LLSTLHLLV; listed as Homo sapiens) [compound 310]
“+++” (≥50 = +++)	385 (YTIPLAIKL; listed as Homo sapiens) [compound 385]
“+++” (≥50 = +++)	291 (ILLNEDDLVTI; listed as Homo sapiens) [compound 291]
“+++” (≥50 = +++)	62 (GIIDGSPRL; listed as Homo sapiens) [compound 62]
“+++” (≥50 = +++)	309 (ILYGTQFVL; listed as Homo sapiens) [compound 309]
“+++” (≥50 = +++)	256 (QLLPVSNVVSV; listed as Homo sapiens) [compound 256]
“++++” (≥75% = ++++)	287 (FLWEEKFNSL; listed as Homo sapiens) [compound 287]
“+++” (≥50 = +++)	238 (GLVETELQL; listed as Homo sapiens) [compound 238]
“++” (≥20% = ++)	87 (HQIEAVDGEEL; listed as Homo sapiens) [compound 87]
“++” (≥20% = ++)	284 (LLSAAEPVPA; listed as Homo sapiens) [compound 284]
“++++” (≥75% = ++++)	328 (VLLPQETAEIHL; listed as Homo sapiens) [compound 328]
“+++” (≥50 = +++)	89 (ILDFGTFQL; listed as Homo sapiens) [compound 89]
“+++” (≥50 = +++)	362 (ILTELGGFEV; listed as Homo sapiens) [compound 362]

Continued, substance first:

Substance	Peptide Exchange (MHC class I binding score, peptide exchange yield)
384 (YMIGSEVGNYL; listed as Homo sapiens) [compound 384]	“++++” (≥75% = ++++)
29 (AVLQAVTAV; listed as Homo sapiens) [compound 29]	“+++” (≥50 = +++)
216 (WLAGDVPAA; listed as Homo sapiens) [compound 216]	“+++” (≥50 = +++)
6 (ALDTLEDDMTI; listed as Homo sapiens) [compound 6]	“+++” (≥50 = +++)
383 (YLLREWVNL; listed as Homo sapiens) [compound 383]	“++++” (≥75% = ++++)
160 (SLSFLVPSL; listed as Homo sapiens) [compound 160]	“+++” (≥50 = +++)
164 (SVHKGFAFV; listed as Homo sapiens) [compound 164]	“+++” (≥50 = +++)
316 (MLLEHGITL; listed as Homo sapiens) [compound 316]	“+++” (≥50 = +++)
132 (LVYEAIIMV; listed as Homo sapiens) [compound 132]	“+++” (≥50 = +++)
265 (TLLADDLEIKL; listed as Homo sapiens) [compound 265]	“+++” (≥50 = +++)
165 (TLDDDLDTV; listed as Homo sapiens) [compound 165]	“++” (≥20% = ++)
143 (QLLDTYFTL; listed as Homo sapiens) [compound 143]	“+++” (≥50 = +++)
4 (VIAELPPKVSV; listed as Homo sapiens) [compound 4]	“+++” (≥50 = +++)
339 (GLWGTVVNI; listed as Homo sapiens) [compound 339]	“+++” (≥50 = +++)
93 (ILFNTQINI; listed as Homo sapiens) [compound 93]	“+++” (≥50 = +++)
234 (GLDDAEYAL; listed as Homo sapiens) [compound 234]	“++” (≥20% = ++)
243 (ILPTLEKELFL; listed as Homo sapiens) [compound 243]	“+++” (≥50 = +++)
18 (LLGEFSIKM; listed as Homo sapiens) [compound 18]	“+++” (≥50 = +++)
302 (ILQDLTFVHL; listed as Homo sapiens) [compound 302]	“+++” (≥50 = +++)

Substance	Peptide Exchange (MHC class I binding score, peptide exchange yield)
271 (VIRNIVEAA; listed as Homo sapiens) [compound 271]	“++” (≥20% = ++)
274 (VLLEYHIAYL; listed as Homo sapiens) [compound 274]	“+++” (≥50 = +++)
119 (VLPAEFFEV; listed as Homo sapiens) [compound 119]	“+++” (≥50 = +++)
259 (RLLDEQFAVL; listed as Homo sapiens) [compound 259]	“+++” (≥50 = +++)
351 (ALSEKLARL; listed as Homo sapiens) [compound 351]	“+++” (≥50 = +++)
128 (LLSEEEYHL; listed as Homo sapiens) [compound 128]	“+++” (≥50 = +++)
292 (AAALIIHHV; listed as Homo sapiens) [compound 292]	“+++” (≥50 = +++)
146 (SIIEGPIIKL; listed as Homo sapiens) [compound 146]	“+++” (≥50 = +++)
308 (SLYDVSRMYV; listed as Homo sapiens) [compound 308]	“++++” (≥75% = ++++)
83 (GQGEVLVYV; listed as Homo sapiens) [compound 83]	“+++” (≥50 = +++)
24 (AMAGDVVYA; listed as Homo sapiens) [compound 24]	“+++” (≥50 = +++)
131 (LQALEVLKI; listed as Homo sapiens) [compound 131]	“+” (≥10% = +)
149 (SLDNGGYYI; listed as Homo sapiens) [compound 149]	“+++” (≥50 = +++)
41 (FLDPSLDPLL; listed as Homo sapiens) [compound 41]	“+++” (≥50 = +++)
327 (VLIKWFPEV; listed as Homo sapiens) [compound 327]	“++++” (≥75% = ++++)
221 (ALVSTIIMV; listed as Homo sapiens) [compound 221]	“+” (≥10% = +)
277 (VMILKLPFL; listed as Homo sapiens) [compound 277]	“++” (≥20% = ++)
299 (ILEENIPVL; listed as Homo sapiens) [compound 299]	“+++” (≥50 = +++)
